Assay results: article PMC9805813 (Biochemistry, 2021)
Where a chain is given by its changes, count along the chain named. In names and notes the source's numbering stands.

T1: PaParE1 toxin, wild type (Pseudomonas aeruginosa, UniProt Q9I708 1-93)
T1 sequence: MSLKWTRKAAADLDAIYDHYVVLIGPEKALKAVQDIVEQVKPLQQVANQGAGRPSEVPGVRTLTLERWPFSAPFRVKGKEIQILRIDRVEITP

B1: mCherry fused to full length ParD1 (natural protein, Pseudomonas aeruginosa, UniProt Q9I707 1-75, looked up)
chain: MSTVVSFRADDALVAALDELARATHRDRPYHLRQALAQYLERQQWQVAAIDEGLADANAGRLLEHIEIEKRWGLQ
B2: PaParD1 antitoxin, wild type, His-tagged (natural protein)
chain: B1 chain
B3: PaParD1 I68A, His-tagged (natural protein, Pseudomonas aeruginosa, UniProt Q9I707 1-75, looked up)
chain: B1 chain with I68A

Key:
[1] = biological target: T1, PaParE1 toxin, wild type; experiment: BLI
[2] = biological target: the molecule itself; experiment: SEC-MALS

| Binder | Kd [1] | stoichiometry N [2] |
| --- | --- | --- |
| B1 | 0.225 ± 0.0068 nM |  |
| RQQWQVAAIDEGLADANAGRLLEHIEIEKRWGLQ (domain or fragment) [mCh-ParD1(42-75)] | 0.828 ± 0.55 nM |  |
| B2 |  | 2 |
| B3 |  | 2 |
